This data set concerns lupus anticoagulants. Kind of data set: PTT-LA Screen, lupus patient case study. The class given is in vivo, human. As to conditions: coinciding with the first IV infusion, before the protocol; reference range <=40 sec. The method, then: On Jan. 5, 2023, the invention was administered to a person who was previously diagnosed in July 2019 with the autoimmune disease Lupus. This diagnosis was validated through a complete ANA Screen blood test panel conducted in July and subsequently in August of 2019 for a second confirmation. The patient was on standard therapies and medications typically prescribed for Lupus until December 2022, during which their symptoms progressively deteriorated. Of note, the patient voluntarily ceased all standard treatments for Lupus and other related auto-immune diseases one month prior to commencing the invention, under the supervision of their treating rheumatologist of the Arthritis & Rheumatic Disease Specialties center.
PTT-LA Screen: Tests for the presence of lupus anticoagulants, which are antibodies that can interfere with blood clotting and are commonly found in lupus patients.

With “Inflectra: intravenous (IV) infusion treatment, a monoclonal antibody used to treat a range of inflammatory autoimmune diseases”, the PTT-LA levels result is “significant spike”.

The values are drawn from US20250325622A1, “Autoimmune Disease Modulation Protocol” (priority 2024, published 2025).
